For assay [1], the target named is RsbW1 (MSMEG_1803), purified from E. coli (pT7-7rsbW1) (M. smegmatis) (UniProt A0QTD7). Description: native gel or EMSA; non-denaturing PAGE, CBB stain; 160 pmol RsbW1 mixed with increasing amounts of WT, S63A or S63E RsfB in binding buffer [40 mM Tris-HCl (pH 8.0), 0.01 mM EDTA, 10 mM MgCl2, 20% (v/v) glycerol], 30 min at 25°C. (Mobility shift assays separate free from complexed probe on a gel.)

The target in assay [2] is T1, RsbW1 (MSMEG_1803), purified from E. coli (pT7-7rsbW1) (M. smegmatis, UniProt A0QTD7 1-138).
T1 construct: Anti-sigma factor RsbW1 of Mycobacterium smegmatis, locus MSMEG_1803, 138 amino acids; also called purified RsbW1; source: E. coli BL21 (DE3) with pT7-7rsbW1, purified (Ni-Sepharose)
T1 sequence (looked up): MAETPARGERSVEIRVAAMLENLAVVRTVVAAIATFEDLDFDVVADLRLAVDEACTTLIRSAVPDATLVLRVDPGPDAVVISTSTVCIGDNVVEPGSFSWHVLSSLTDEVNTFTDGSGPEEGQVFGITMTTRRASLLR
Described as above. The settings on record: both partners purified.

In general, stoichiometry N refers to a count of units in the complex or per binding partner. In turn, “C-terminally His6-tagged S63A RsfB purified from E. coli (natural protein)” showed a stoichiometry N in assay [1] of 1.

B1: C-terminally His6-tagged WT RsfB (MSMEG_6127) purified from E. coli (natural protein, M. smegmatis, UniProt A0R5B0 1-119, looked up)
chain: MTSQDPANCTVEERRVGDITVVAVTGTVDMLTAPKLEDAIGSAAKSEPSAVVVDLSAVDFLASAGMGVLVAAHGELAPAVRLVVVADGPATSRPLKLVGIADVVDLFATLDEALSSLKT
notes: Anti-SigF antagonist RsfB of Mycobacterium smegmatis, locus MSMEG_6127; unphosphorylated when made in E. coli; also called RsfB-His6; source: E. coli BL21 (DE3) with pT7-7rsfB, purified (Ni-Sepharose twice, PD-10 desalting)
As to B1, in assay [2], the “stoichiometry N” value was 1.

These data come from paper PMC7693655, “The Partner Switching System of the SigF Sigma Factor in Mycobacterium smegmatis and Induction of the SigF Regulon Under Respiration-Inhibitory Conditions” (Frontiers in Microbiology, 2020).
